Results published in article PMC6332120.

Target: thioredoxin glutathione reductase (TGR) from Mesocestoides vogae (Mesocestoides vogae (endogenous in tetrathyridium larvae))
Assay: SEC; 25%-50% ammonium sulfate fraction of the larval extract, dialysed against PBS, on HiLoad 16/600 Superdex 200 pg; TR and GR activities traced in the fractions

- stoichiometry N: 2
Substance: thioredoxin glutathione reductase (TGR) from Mesocestoides vogae (enzyme)
